Assay results from FireProtDB (doi:10.1021/bi0357412).

B1: Phosphocarrier protein HPr, P08877 (parent)
chain: MAQKTFKVTADSGIHARPATVLVQTASKYDADVNLEYNGKTVNLKSIMGVMSLGIAKGAEITISASGADENDALNALEETMKSEGLGE

Variants of: B1
Details: Bacillus subtilis (strain 168); pH 7; 25 °C; GdnHCl; CD; Potassium phosphate 10 mM; reversible: yes; structure 1SPH; whole UniProt chain shown

Row | Variant | ddG of mutation (higher = less stable) | denaturant m value | denaturant midpoint (higher = more stable) | unfolding free energy
1 | D69A G49E | -2.51 kJ/mol | 2.4 kcal/mol/M | 1.8 M | 18 kJ/mol

Same assay, conditions: Bacillus subtilis (strain 168); pH 7; 25 °C; Thermal; CD; Sodium phosphate 50 mM; reversible: yes; structure 1SPH; whole UniProt chain shown

Row | Variant | ddG of mutation (higher = less stable) | unfolding free energy
2 | D69A G49E | 2.93 kJ/mol | 18.4 kJ/mol

Same assay, conditions: Bacillus subtilis (strain 168); pH 7; 25 °C; Urea; CD; Sodium phosphate 50 mM; reversible: yes; structure 1SPH; whole UniProt chain shown

Row | Variant | ddG of mutation (higher = less stable) | denaturant m value | denaturant midpoint (higher = more stable) | unfolding free energy
3 | D69A G49E | 2.93 kJ/mol | 1.1 kcal/mol/M | 3.9 M | 17.6 kJ/mol

Same assay, conditions: Bacillus subtilis (strain 168); pH 7; Thermal; DSC; Potassium phosphate 10 mM; reversible: yes; structure 1SPH; whole UniProt chain shown

Row | Variant | Tm | change of melting temperature, mutant - wild type (higher = more stable) | unfolding enthalpy (calorimetric)
4 | D69A G49E | 70 °C | -4.9 °C | 299 kJ/mol
